Assay results as given in article PMC3417418 (2012).

Columns and labels:
CXCR3 [1] = target: T1, CXCR3 (Homo sapiens, UniProt P49682); assay: competition with 125I-CXCL11 on L1.2 cells
T1 chain: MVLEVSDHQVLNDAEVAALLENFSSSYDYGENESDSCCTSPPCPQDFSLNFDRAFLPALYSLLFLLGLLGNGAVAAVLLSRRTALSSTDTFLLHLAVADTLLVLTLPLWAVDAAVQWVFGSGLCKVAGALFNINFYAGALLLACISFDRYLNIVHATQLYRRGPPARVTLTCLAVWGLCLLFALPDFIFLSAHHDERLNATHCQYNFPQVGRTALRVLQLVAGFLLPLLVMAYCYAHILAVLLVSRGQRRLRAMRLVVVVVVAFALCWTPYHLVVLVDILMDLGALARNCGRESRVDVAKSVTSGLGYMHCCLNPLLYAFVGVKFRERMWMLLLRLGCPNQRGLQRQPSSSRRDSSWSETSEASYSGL

CXCR3 [2] = target: T1, CXCR3; assay: competition with 125I-CXCL10 on L1.2 cells
CXCR3 [3] = target: T2, CXCR3 (Homo sapiens, UniProt P49682); assay: homologous competition 125I radioligand binding on L1.2 cells
T2 chain: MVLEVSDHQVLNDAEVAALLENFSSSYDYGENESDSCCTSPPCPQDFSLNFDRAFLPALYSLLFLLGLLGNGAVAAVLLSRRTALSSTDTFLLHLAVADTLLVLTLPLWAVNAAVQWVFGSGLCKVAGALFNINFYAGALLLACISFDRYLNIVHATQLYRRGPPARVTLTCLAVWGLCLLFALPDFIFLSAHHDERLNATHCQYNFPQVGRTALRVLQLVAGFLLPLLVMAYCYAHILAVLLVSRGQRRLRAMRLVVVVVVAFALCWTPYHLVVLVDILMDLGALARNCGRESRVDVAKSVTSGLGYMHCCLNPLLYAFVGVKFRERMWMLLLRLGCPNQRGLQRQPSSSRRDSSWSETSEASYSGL

CXCR3 [4] = target: T3, CXCR3 (Homo sapiens, UniProt P49682); assay: as above
T3 chain: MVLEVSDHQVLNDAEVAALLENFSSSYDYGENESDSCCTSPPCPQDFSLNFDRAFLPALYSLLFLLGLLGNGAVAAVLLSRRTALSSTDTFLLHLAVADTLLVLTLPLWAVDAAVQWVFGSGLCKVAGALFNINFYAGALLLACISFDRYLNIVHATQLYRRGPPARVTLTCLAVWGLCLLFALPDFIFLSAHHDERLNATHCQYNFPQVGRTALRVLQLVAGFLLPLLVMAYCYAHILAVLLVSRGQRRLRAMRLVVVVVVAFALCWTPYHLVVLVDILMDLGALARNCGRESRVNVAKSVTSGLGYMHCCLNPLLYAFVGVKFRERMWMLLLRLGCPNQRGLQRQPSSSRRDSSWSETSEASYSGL

CXCR3 [5] = target: T4, CXCR3 (Homo sapiens, UniProt P49682); assay: as above
T4 chain: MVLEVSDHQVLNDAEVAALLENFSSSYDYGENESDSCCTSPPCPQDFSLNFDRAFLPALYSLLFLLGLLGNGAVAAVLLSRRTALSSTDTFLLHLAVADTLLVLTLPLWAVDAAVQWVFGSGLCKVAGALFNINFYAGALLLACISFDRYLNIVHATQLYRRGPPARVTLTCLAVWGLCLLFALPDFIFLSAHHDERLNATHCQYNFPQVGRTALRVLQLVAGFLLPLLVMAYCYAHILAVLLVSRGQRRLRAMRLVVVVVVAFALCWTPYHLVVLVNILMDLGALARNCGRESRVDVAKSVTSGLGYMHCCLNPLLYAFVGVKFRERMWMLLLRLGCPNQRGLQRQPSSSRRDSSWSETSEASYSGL

CXCR3 [6] = target: T5, CXCR3 (Homo sapiens, UniProt P49682); assay: as above
T5 chain: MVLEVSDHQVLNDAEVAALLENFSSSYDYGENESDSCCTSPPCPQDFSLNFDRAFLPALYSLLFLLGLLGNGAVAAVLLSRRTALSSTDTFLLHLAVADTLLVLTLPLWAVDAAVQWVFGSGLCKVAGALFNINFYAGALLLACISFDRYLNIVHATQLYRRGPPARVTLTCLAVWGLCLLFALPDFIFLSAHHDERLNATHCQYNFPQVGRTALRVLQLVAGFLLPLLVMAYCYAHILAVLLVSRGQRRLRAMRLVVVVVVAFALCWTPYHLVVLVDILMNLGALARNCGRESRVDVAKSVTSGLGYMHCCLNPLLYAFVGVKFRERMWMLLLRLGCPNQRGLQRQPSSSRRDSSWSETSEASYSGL

CXCR3 [7] = target: T6, CXCR3 (Homo sapiens, UniProt P49682); assay: as above
T6 chain: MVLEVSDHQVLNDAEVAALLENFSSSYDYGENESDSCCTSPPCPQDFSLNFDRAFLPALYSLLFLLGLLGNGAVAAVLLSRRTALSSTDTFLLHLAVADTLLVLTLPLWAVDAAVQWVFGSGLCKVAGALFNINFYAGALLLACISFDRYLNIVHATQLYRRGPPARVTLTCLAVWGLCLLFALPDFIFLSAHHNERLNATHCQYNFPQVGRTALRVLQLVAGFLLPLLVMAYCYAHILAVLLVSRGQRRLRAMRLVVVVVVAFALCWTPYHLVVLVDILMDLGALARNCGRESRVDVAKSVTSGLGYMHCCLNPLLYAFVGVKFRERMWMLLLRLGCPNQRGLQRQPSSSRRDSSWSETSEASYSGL

CXCR3 [8] = target: T7, CXCR3 (Homo sapiens, UniProt P49682); assay: as above
T7 chain: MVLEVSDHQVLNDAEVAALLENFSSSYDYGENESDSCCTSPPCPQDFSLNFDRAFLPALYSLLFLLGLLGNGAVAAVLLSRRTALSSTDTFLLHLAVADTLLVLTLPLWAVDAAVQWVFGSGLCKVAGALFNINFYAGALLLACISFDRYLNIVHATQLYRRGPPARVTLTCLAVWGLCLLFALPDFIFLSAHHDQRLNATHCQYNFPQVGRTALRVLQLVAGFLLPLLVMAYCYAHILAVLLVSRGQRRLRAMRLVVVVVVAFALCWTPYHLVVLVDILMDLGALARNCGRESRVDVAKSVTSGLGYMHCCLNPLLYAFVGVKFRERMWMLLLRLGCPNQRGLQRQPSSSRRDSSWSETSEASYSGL

IC50 (CXCR3 [1]): 1.2 nM
IC50 (CXCR3 [2]): 0.4 nM
Kd (CXCR3 [3]): 3.8 nM
Kd (CXCR3 [4]): 26.3 nM
Kd (CXCR3 [5]): 2.6 nM
Kd (CXCR3 [6]): 1.4 nM
Kd (CXCR3 [7]): 16 nM
Kd (CXCR3 [8]): 0.4 nM
B1: CXCL11 (protein)
chain: FPMFKRGRCLCIGPGVKAVKVADIEKASIMYPSNNCDKIEVIITLKENKGQRCLNPKSKQARLIIKKVERKNF
